# Results published in the RNAGym collection of RNA variant scans (doi:10.1073/pnas.2313332121).
# Fewer inactive variants are shown than the library holds.
# B1: TPR 5TU (parent)
# chain: GGAUCUUCUCGAUCUAACAAAAAAGACAAAUCUGCCACAAAGCUUGAGAGCAUCUUCGGAUGCAGAGGCGGCAGCCUUCGGUGGCGCGAUAGCGCCAACGUUCUCAACUAUGACACGCAAAACGCGUGCUCCGUUGAAUGGAGUUUAUCAUG
# Variants of: B1
# Assay: polymerase ribozyme fitness, log enrichment relative to wild type (log ratio); higher = more active; in vitro selection for triplet polymerase activity
# Method in brief: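 Frozen incubation at −7 °C formed the core of a single, triplicate in vitro selection round applied to PCR-built, transcribed mutant libraries of each subunit of a heterodimeric triplet polymerase ribozyme. Extended constructs were gel-excised, captured with streptavidin beads and amplified by RT-PCR, and input and output libraries were Illumina-sequenced with a filter of ≥10 input reads and ≥1 read per output. Fitness is the logarithm of genotype enrichment relative to wild-type enrichment, with inverse-variance-weighted replicate averaging, and the logarithm is base 2.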
row,Variant,polymerase ribozyme fitness (log ratio)
1,GGAUCUUCUCGAUCUAACAAAAAAGACAAAUCUGCCACAAAGCUUGAGAGCAUCUUCGGAUGCAGAGGCGGCAGCCUUCGGUGGCGCGAUAGCGCCAACAUUCUCAACUAUGACACGCAAAACGCAUGCUCCGUUGAAUGGAGUUUAUCAUG [G100A G126A],-4.02
2,GGAUCUUCUCGAUCUAACAAAAAAGACAAAUCUGCCACAAAGCUUGAGAGCAUCUUCGGAUGCAGAGGCGGCAGCCUUCGGUGGCGCGAUAGCGCCAAGGUUCUCAACUAUGACGCGCAAAACGGGUGCUCCGUUCAAUGGAGUUUAUCAUG [C99G A115G C125G G136C],-3.89
3,GGAUCUUCUCGAUCUAACAAAAAAGACAAAUCUGCCACAAAGCUUGAGAGCAUCUUCGGAUGCAGAGGCGGCAGCCUUCGGUGGCGCGAUAGCGCCAACCUUCUCAACUAUGACACGCAAAACGCGUGCUCCGUUUAAUGGAGUUGAUCAUG [G100C G136U U146G],≤ -4.2
4,GGAUCUUCUCGAUCUAACAAAAAAGACAAAUCUGCCACAAAGCUUGAGAGCAUCUUCGGAUGCAGAGGCGGCAGCCUUCGGUGGCGCGAUAGCGCCAAGGUUCUCAACUAUGACACGCAAAACACGUGCUCCGUUGAAUGUAGUUUAUCAUG [C99G G124A G141U],-0.199
5,GGAUCUUCUCGAUCUAACAAAAAAGACAAAUCUGCCACAAAGCUUGAGAGCAUCUUCGGAUGCAGAGGCGGCAGCCUUCGGUGGCGCGAUAGCGCCAAUGUUAUCAACUAUGACACGCAAAACGCGUACUCCGUUUAAUGGAGUUUAGCAUG [C99U C103A G128A G136U U148G],≤ -4.2
6,GGAUCUUCUCGAUCUAACAAAAAAGACAAAUCUGCCACAAAGCUUGAGAGCAUCUUCGGAUGCAGAGGCGGCAGCCUUCGGUGGCGCGAUAGCGCCAAGGUGCUCAACUAUGACACGCAAAACGCGUGCUCCGUAGAAUGGAGUUUAUCAUG [C99G U102G U135A],≤ -4.2
7,GGAUCUUCUCGAUCUAACAAAAAAGACAAAUCUGCCACAAAGCUUGAGAGCAUCUUCGGAUGCAGAGGCGGCAGCCUUCGGUGGCGCGAUAGCGCCAACUGUCUCAACUAUGACACGCAAAACGCGUGCUCCGUUGAAUGGAGUUUAUCAUG [G100U U101G],-3.34
8,GGAUCUUCUCGAUCUAACAAAAAAGACAAAUCUGCCACAAAGCUUGAGAGCAUCUUCGGAUGCAGAGGCGGCAGCCUUCGGUGGCGCGAUAGCGCCAACAUUCUCAACUAUGACACGCAAAACGCGUGGUCCGUUGAAUGGAGUUUAUCAUG [G100A C129G],≤ -4.2
9,GGAUCUUCUCGAUCUAACAAAAAAGACAAAUCUGCCACAAAGCUUGAGAGCAUCUUCGGAUGCAGAGGCGGCAGCCUUCGGUGGCGCGAUAGCGCCAAAGUUCUCAACUAUGACUCGCAGAACGCGUGCUCCGUUGAAUGGAGUUUAUCAUG [C99A A115U A120G],-2.43
10,GGAUCUUCUCGAUCUAACAAAAAAGACAAAUCUGCCACAAAGCUUGAGAGCAUCUUCGGAUGCAGAGGCGGCAGCCUUCGGUGGCGCGAUAGCGCCAAGGUUCUCAACUAUGACACGCAAAACGCGUGCUCCGUUGAAUGGAGAUUAACAUG [C99G U144A U148A],≤ -4.2
11,GGAUCUUCUCGAUCUAACAAAAAAGACAAAUCUGCCACAAAGCUUGAGAGCAUCUUCGGAUGCAGAGGCGGCAGCCUUCGGUGGCGCGAUAGCGCCAAGGUUCUCAACUAUGACACGCAAAACGCGUGCUCCGUUGAAUGGAGUUUAUUAUG [C99G C149U],-1.74
12,GGAUCUUCUCGAUCUAACAAAAAAGACAAAUCUGCCACAAAGCUUGAGAGCAUCUUCGGAUGCAGAGGCGGCAGCCUUCGGUGGCGCGAUAGCGCCAAGGUUCUCAACUAUGACACGCAAAACGCGUGCUCCGUUGAAUGGAGUUUCUCAUG [C99G A147C],-1.47
13,GGAUCUUCUCGAUCUAACAAAAAAGACAAAUCUGCCACAAAGCUUGAGAGCAUCUUCGGAUGCAGAGGCGGCAGCCUUCGGUGGCGCGAUAGCGCCAAGGAUCUCAACUAUGACACGCAAAACGCGUGCUCCGUUGAAUGGAGUUUAUCAUG [C99G U101A],-1.12
14,GGAUCUUCUCGAUCUAACAAAAAAGACAAAUCUGCCACAAAGCUUGAGAGCAUCUUCGGAUGCAGAGGCGGCAGCCUUCGGUGGCGCGAUAGCGCCAUCGUUCUCAACUAUGACACGCAAAACGCGUGCUCCGUUGAAUGGAGUUUAACAUG [A98U U148A],-3.03
15,GGAUCUUCUCGAUCUAACAAAAAAGACAAAUCUGCCACAAAGCUUGAGAGCAUCUUCGGAUGCAGAGGCGGCAGCCUUCGGUGGCGCGAUAGCGCCAAGGUUCUCAACUAUGAUACGCAAAACGCGUGCUCCGUUGAAUGGAGUUUAUCAUG [C99G C114U],-2.38
16,GGAUCUUCUCGAUCUAACAAAAAAGACAAAUCUGCCACAAAGCUUGAGAGCAUCUUCGGAUGCAGAGGCGGCAGCCUUCGGUGGCGCGAUAGCGCCAAGGUUCUCAACUAUGACACGCAAAACGCGUGCUCCGUUGCAUGGGGUUUAUCAUG [C99G A137C A142G],-3.71
17,GGAUCUUCUCGAUCUAACAAAAAAGACAAAUCUGCCACAAAGCUUGAGAGCAUCUUCGGAUGCAGAGGCGGCAGCCUUCGGUGGCGCGAUAGCGCCAAUGUUCUCAACUAUGACACGCAAAACGCGUGCUCCGUUAAAUGGAGUUUAUCAUG [C99U G136A],0.0423
18,GGAUCUUCUCGAUCUAACAAAAAAGACAAAUCUGCCACAAAGCUUGAGAGCAUCUUCGGAUGCAGAGGCGGCAGCCUUCGGUGGCGCGAUAGCGCCAAUGUUCUCAACUAUGACACGCAAAACGCGUGCUCCGUUUAAUGGAGUUUAUCAUG [C99U G136U],-2.25
19,GGAUCUUCUCGAUCUAACAAAAAAGACAAAUCUGCCACAAAGCUUGAGAGCAUCUUCGGAUGCAGAGGCGGCAGCCUUCGGUGGCGCGAUAGCGCCAAUGUUCUCAACUAUGACACGCAAAACGCGUGCUCCGUUGAAUGGAGUUUGUCAUG [C99U A147G],-2
